Data from the supplement of paper PMC5998384.

Experiments:
[1] = test system: HeLa Kyoto; assay: solubility in G1/S (NP-40 vs SDS abundance) (log2 ratio); higher = more soluble; conditions: cell cycle stage: G1/S
[2] = test system: HeLa Kyoto; assay: solubility change mitosis vs G1/S (difference of NP-40 vs SDS log2 ratios) (log2 ratio difference); higher = more soluble in mitosis
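Wherever solubility change mitosis vs G1/S (difference of NP-40 vs SDS log2 ratios) is given: synchronized HeLa Kyoto cells (double thymidine block for G1/S, nocodazole release for mitosis), protein amounts in NP-40 versus SDS lysates quantified by mass spectrometry, three biological replicates.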
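Wherever solubility in G1/S (NP-40 vs SDS abundance) is given: HeLa Kyoto cells arrested at G1/S by double thymidine block, proteins quantified by TMT10plex mass spectrometry in mild NP-40 versus SDS extracts, three biological replicates.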

How did the “solubility in G1/S (log2)” value [1] turn out when “MLRRPAPALAPAARLLLAGLLCGGGVWAARVNKHKPWLEPTYHGIVTENDNTVLLDPPLIALDKDAPLRFAESFEVTVTKEGEICGFKIHGQNVPFDAVVVDKSTGEGVIRSKEKLDCELQKDYSFTIQAYDCGKGPDGTNVKKSHKATVHIQVNDVNEYAPVFKEKSYKATVIEGKQYDSILRVEAVDADCSPQFSQICSYEIITPDVPFTVDKDGYIKNTEKLNYGKEHQYKLTVTAYDCGKKRATEDVLVKISIKPTCTPGWQGWNNRIEYEPGTGALAVFPNIHLETCDEPVASVQATVELETSHIGKGCDRDTYSEKSLHRLCGAAAGTAELLPSPSGSLNWTMGLPTDNGHDSDQVFEFNGTQAVRIPDGVVSVSPKEPFTISVWMRHGPFGRKKETILCSSDKTDMNRHHYSLYVHGCRLIFLFRQDPSEEKKYRPAEFHWKLNQVCDEEWHHYVLNVEFPSVTLYVDGTSHEPFSVTEDYPLHPSKIETQLVVGACWQEFSGVENDNETEPVTVASAGGDLHMTQFFRGNLAGLTLRSGKLADKKVIDCLYTCKEGLDLQVLEDSGRGVQIQAHPSQLVLTLEGEDLGELDKAMQHISYLNSRQFPTPGIRRLKITSTIKCFNEATCISVPPVDGYVMVLQPEEPKISLSGVHHFARAASEFESSEGVFLFPELRIISTITREVEPEGDGAEDPTVQESLVSEEIVHDLDTCEVTVEGEELNHEQESLEVDMARLQQKGIEVSSSELGMTFTGVDTMASYEEVLHLLRYRNWHARSLLDRKFKLICSELNGRYISNEFKVEVNVIHTANPMEHANHMAAQPQFVHPEHRSFVDLSGHNLANPHPFAVVPSTATVVIVVCVSFLVFMIILGVFRIRAAHRRTMRDQDTGKENEMDWDDSALTITVNPMETYEDQHSSEEEEEEEEEEESEDGEEEDDITSAESESSEEEEGEQGDPQNATRQQQLEWDDSTLSY [CLSTN1]” was run?
Its value is -0.0306.

And the “solubility change mitosis (log2)” value [2]?
Its value is -0.189.

Which results are given for “MMADEEEEVKPILQKLQELVDQLYSFRDCYFETHSVEDAGRKQQDVQKEMEKTLQQMEEVVGSVQGKAQVLMLTGKALNVTPDYSPKAEELLSKAVKLEPELVEAWNQLGEVYWKKGDVAAAHTCFSGALTHCRNKVSLQNLSMVLRQLRTDTEDEHSHHVMDSVRQAKLAVQMDVHDGRSWYILGNSYLSLYFSTGQNPKISQQALSAYAQAEKVDRKASSNPDLHLNRATLHKYEESYGEALEGFSRAAALDPAWPEPRQREQQLLEFLDRLTSLLESKGKVKTKKLQSMLGSLRPAHLGPCSDGHYQSASGQKVTLELKPLSTLQPGVNSGAVILGKVVFSLTTEEKVPFTFGLVDSDGPCYAVMVYNIVQSWGVLIGDSVAIPEPNLRLHRIQHKGKDYSFSSVRVETPLLLVVNGKPQGSSSQAVATVASRPQCE [TTC5]”?
solubility in G1/S (log2) [1]: 0.132; solubility change mitosis (log2) [2]: 0.145

What does the source list for “MMAQSNMFTVADVLSQDELRKKLYQTFKDRGILDTLKTQLRNQLIHELMHPVLSGELQPRSISVEGSSLLIGASNSLVADHLQRCGYEYSLSVFFPESGLAKEKVFTMQDLLQLIKINPTSSLYKSLVSGSDKENQKGFLMHFLKELAEYHQAKESCNMETQTSSTFNRDSLAEKLQLIDDQFADAYPQRIKFESLEIKLNEYKREIEEQLRAEMCQKLKFFKDTEIAKIKMEAKKKYEKELTMFQNDFEKACQAKSEALVLREKSTLERIHKHQEIETKEIYAQRQLLLKDMDLLRGREAELKQRVEAFELNQKLQEEKHKSITEALRRQEQNIKSFEETYDRKLKNELLKYQLELKDDYIIRTNRLIEDERKNKEKAVHLQEELIAINSKKEELNQSVNRVKELELELESVKAQSLAITKQNHMLNEKVKEMSDYSLLKEEKLELLAQNKLLKQQLEESRNENLRLLNRLAQPAPELAVFQKELRKAEKAIVVEHEEFESCRQALHKQLQDEIEHSAQLKAQILGYKASVKSLTTQVADLKLQLKQTQTALENEVYCNPKQSVIDRSVNGLINGNVVPCNGEISGDFLNNPFKQENVLARMVASRITNYPTAWVEGSSPDSDLEFVANTKARVKELQQEAERLEKAFRSYHRRVIKNSAKSPLAAKSPPSLHLLEAFKNITSSSPERHIFGEDRVVSEQPQVGTLEERNDVVEALTGSAASRLRGGTSSRRLSSTPLPKAKRSLESEMYLEGLGRSHIASPSPCPDRMPLPSPTESRHSLSIPPVSSPPEQKVGLYRRQTELQDKSEFSDVDKLAFKDNEEFESSFESAGNMPRQLEMGGLSPAGDMSHVDAAAAAVPLSYQHPSVDQKQIEEQKEEEKIREQQVKERRQREERRQSNLQEVLERERRELEKLYQERKMIEESLKIKIKKELEMENELEMSNQEIKDKSAHSENPLEKYMKIIQQEQDQESADKSSKKMVQEGSLVDTLQSSDKVESLTGFSHEELDDSW [OFD1]”?
solubility in G1/S (log2) [1]: -0.146; solubility change mitosis (log2) [2]: 0.252

How did the “solubility in G1/S (log2)” value [1] turn out when “MMDPCSVGVQLRTTNECHKTYYTRHTGFKTLQELSSNDMLLLQLRTGMTLSGNNTICFHHVKIYIDRFEDLQKSCCDPFNIHKKLAKKNLHVIDLDDATFLSAKFGRQLVPGWKLCPKCTQIINGSVDVDTEDRQKRKPESDGRTAKALRSLQFTNPGRQTEFAPETGKREKRRLTKNATAGSDRQVIPAKSKVYDSQGLLIFSGMDLCDCLDEDCLGCFYACPACGSTKCGAECRCDRKWLYEQIEIEGGEIIHNKHAG [ARL14EP]” was run?
The value was -0.0781.

And the “solubility change mitosis (log2)” value [2]?
The value was -0.0185.

How did the “solubility in G1/S (log2)” value [1] turn out when “MMDSPFLELWQSKAVSIREQLGLGDRPNDSYCYNSAKNSTVLQGVTFGGIPTVLLIDVSCFLFLILVFSIIRRRFWDYGRIALVSEADSESRFQRLSSTSSSGQQDFENELGCCPWLTAIFRLHDDQILEWCGEDAIHYLSFQRHIIFLLVVVSFLSLCVILPVNLSGDLLDKDPYSFGRTTIANLQTDNDLLWLHTIFAVIYLFLTVGFMRHHTQSIKYKEENLVRRTLFITGLPRDARKETVESHFRDAYPTCEVVDVQLCYNVAKLIYLCKEKKKTEKSLTYYTNLQVKTGQRTLINPKPCGQFCCCEVLGCEWEDAISYYTRMKDRLLERITEEERHVQDQPLGMAFVTFQEKSMATYILKDFNACKCQSLQCKGEPQPSSHSRELYTSKWTVTFAADPEDICWKNLSIQGLRWWLQWLGINFTLFLGLFFLTTPSIILSTMDKFNVTKPIHALNNPIISQFFPTLLLWSFSALLPSIVYYSTLLESHWTKSGENQIMMTKVYIFLIFMVLILPSLGLTSLDFFFRWLFDKTSSEASIRLECVFLPDQGAFFVNYVIASAFIGNGMELLRLPGLILYTFRMIMAKTAADRRNVKQNQAFQYEFGAMYAWMLCVFTVIVAYSITCPIIAPFGLIYILLKHMVDRHNLYFVYLPAKLEKGIHFAAVNQALAAPILCLFWLYFFSFLRLGMKAPATLFTFLVLLLTILVCLAHTCFGCFKHLSPLNYKTEEPASDKGSEAEAHMPPPFTPYVPRILNGLASERTALSPQQQQQQTYGAIHNISGTIPGQCLAQSATGSVAAAPQEA [TMEM63A]” was run?
The value was -0.142.

What about the “solubility change mitosis (log2)” value [2] of the same sequence?
Its value is 0.0055.

Which “solubility in G1/S (log2)” value [1] does the source give for “MMFRSDRMWSCHWKWKPSPLLFLFALYIMCVPHSVWGCANCRVVLSNPSGTFTSPCYPNDYPNSQACMWTLRAPTGYIIQITFNDFDIEEAPNCIYDSLSLDNGESQTKFCGATAKGLSFNSSANEMHVSFSSDFSIQKKGFNASYIRVAVSLRNQKVILPQTSDAYQVSVAKSISIPELSAFTLCFEATKVGHEDSDWTAFSYSNASFTQLLSFGKAKSGYFLSISDSKCLLNNALPVKEKEDIFAESFEQLCLVWNNSLGSIGVNFKRNYETVPCDSTISKVIPGNGKLLLGSNQNEIVSLKGDIYNFRLWNFTMNAKILSNLSCNVKGNVVDWQNDFWNIPNLALKAESNLSCGSYLIPLPAAELASCADLGTLCQATVNSPSTTPPTVTTNMPVTNRIDKQRNDGIIYRISVVIQNILRHPEVKVQSKVAEWLNSTFQNWNYTVYVVNISFHLSAGEDKIKVKRSLEDEPRLVLWALLVYNATNNTNLEGKIIQQKLLKNNESLDEGLRLHTVNVRQLGHCLAMEEPKGYYWPSIQPSEYVLPCPDKPGFSASRICFYNATNPLVTYWGPVDISNCLKEANEVANQILNLTADGQNLTSANITNIVEQVKRIVNKEENIDITLGSTLMNIFSNILSSSDSDLLESSSEALKTIDELAFKIDLNSTSHVNITTRNLALSVSSLLPGTNAISNFSIGLPSNNESYFQMDFESGQVDPLASVILPPNLLENLSPEDSVLVRRAQFTFFNKTGLFQDVGPQRKTLVSYVMACSIGNITIQNLKDPVQIKIKHTRTQEVHHPICAFWDLNKNKSFGGWNTSGCVAHRDSDASETVCLCNHFTHFGVLMDLPRSASQLDARNTKVLTFISYIGCGISAIFSAATLLTYVAFEKLRRDYPSKILMNLSTALLFLNLLFLLDGWITSFNVDGLCIAVAVLLHFFLLATFTWMGLEAIHMYIALVKVFNTYIRRYILKFCIIGWGLPALVVSVVLASRNNNEVYGKESYGKEKGDEFCWIQDPVIFYVTCAGYFGVMFFLNIAMFIVVMVQICGRNGKRSNRTLREEVLRNLRSVVSLTFLLGMTWGFAFFAWGPLNIPFMYLFSIFNSLQGLFIFIFHCAMKENVQKQWRQHLCCGRFRLADNSDWSKTATNIIKKSSDNLGKSLSSSSIGSNSTYLTSKSKSSSTTYFKRNSHTDNVSYEHSFNKSGSLRQCFHGQVLVKTGPC [GPR126]” here?
Its value is -0.117.

What about the “solubility change mitosis (log2)” value [2] of the same sequence?
The value was -0.0428.

What does the source list for “MMMVRRGLLAWISRVVVLLVLLCCAISVLYMLACTPKGDEEQLALPRANSPTGKEGYQAVLQEWEEQHRNYVSSLKRQIAQLKEELQERSEQLRNGQYQASDAAGLGLDRSPPEKTQADLLAFLHSQVDKAEVNAGVKLATEYAAVPFDSFTLQKVYQLETGLTRHPEEKPVRKDKRDELVEAIESALETLNSPAENSPNHRPYTASDFIEGIYRTERDKGTLYELTFKGDHKHEFKRLILFRPFGPIMKVKNEKLNMANTLINVIVPLAKRVDKFRQFMQNFREMCIEQDGRVHLTVVYFGKEEINEVKGILENTSKAANFRNFTFIQLNGEFSRGKGLDVGARFWKGSNVLLFFCDVDIYFTSEFLNTCRLNTQPGKKVFYPVLFSQYNPGIIYGHHDAVPPLEQQLVIKKETGFWRDFGFGMTCQYRSDFINIGGFDLDIKGWGGEDVHLYRKYLHSNLIVVRTPVRGLFHLWHEKRCMDELTPEQYKMCMQSKAMNEASHGQLGMLVFRHEIEAHLRKQKQKTSSKKT [CSGALNACT1]”?
solubility in G1/S (log2) [1]: 0.0522; solubility change mitosis (log2) [2]: 0.00125
